# Results as given in US20130149309A1.
# B1: gSAP-16K-HA (16 KDa C-terminal fragment, amino acid sequence 733-854, of gSAP with a C-terminal HA tag), A4D1B5 733-854 (protein, human, UniProt A4D1B5 733-854, looked up, not shown: small tags and cut ends)
# chain: RLMKDLDNTEKNEKLKFSIIVRLPPLIGQKICRLWDHPMSSNIISRNHVTRLLQNYKKQPRNSMINKSSFSVEFLPLNYFIEILTDIESSNQALYPFEGHDNVDAEFVEEAALKHTAMLLGL
# Molecular target: amyloid precursor protein C-terminal fragment (APP-CTF), P05067
# Experiment: co-immunoprecipitation, HEK293 cells, with 10 µM imatinib
# Conditions: remark: other sources report otherwise
# Chain of amyloid precursor protein C-terminal fragment (APP-CTF), P05067 (P05067 672-770 limits assumed): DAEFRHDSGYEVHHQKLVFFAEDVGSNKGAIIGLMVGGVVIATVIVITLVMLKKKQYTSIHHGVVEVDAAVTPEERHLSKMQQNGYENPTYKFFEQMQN
binder,measurement,value
B1,reduction of the interaction by imatinib (10 µM),47%
